Experimental data from US8048999B2, “Nuclear reprogramming factor” (Kyoto University, priority 2005, dated 2011).

B1: bFGF: cytokine permanently expressed by STO feeder cells transduced with pMX expression vector (protein, UniProt P15655 10-154, looked up)
Fibroblast growth factor 2: PALPEDGGAAFPPGHFKDPKRLYCKNGGFFLRIHPDGRVDGVREKSDPHVKLQLQAEERGVVSIKGVCANRYLAMKEDGRLLASKCVTEECFFFERLESNNYNTYRSRKYSSWYVALKRTGQYKLGSKTGPGQKAILFLPMSAKS
B2: SCF: cytokine permanently expressed by STO feeder cells transduced with pMX expression vector (protein, UniProt P20826 26-190, looked up)
Soluble KIT ligand: KEICGNPVTDNVKDITKLVANLPNDYMITLNYVAGMDVLPSHCWLRDMVIQLSLSLTTLLDKFSNISEGLSNYSIIDKLGKIVDDLVLCMEENAPKNIKESPKRPETRSFTPEEFFSIFNRSIDAFKDFMVASDTSDCVLSSTLGPEKDSRVSVTKPFMLPPVAA

Legend:
[1] = test system: Nanog-EGFP-IRES-Puro mouse MEFs; assay: iPS cell establishment with Nanog-GFP reporter, puromycin selection; assay type: cell-based; details: 4 factors; PD98059 final concentration 25 μM continuously added from the next day of transfection
Description: Studies were made as to whether iPS cells could be established with a reporter other than Fbx15-βgeo. […] artificial chromosome (BAC) containing the Nanog gene in the center was isolated, and then the GFP gene and the puromycin resistance gene were knocked in by recombination in E. coli (FIG. 12A). Subsequently, the above modified BAC was introduced into ES cells to confirm that the cells became GFP-positive in an undifferentiated state specific manner (data not shown). Then, these ES cells were transplanted in mouse blastocysts to create transgenic mice via chimeric mice. In these mice, GFP-positive cells were specifically observed in inner cell masses of the blastocysts or gonads of embryos at 13.5 days after fertilization (FIG. 12B). The gonads were removed from the embryos at 13.5 days after fertilization (hybrid of DBA, 129, and C57BL/6 mice), and MEFs were isolated. The isolated MEFs were confirmed to be GFP-negative (FIG. 13) by flow cytometry. These MEFs were retrovirally transduced with the 4 factors and subjected to puromycin selection, and as a result, a plural number of resistant colonies were obtained. Only about 10 to 20% of the colonies were GFP-positive. When the GFP-positive colonies were passaged, they gave morphology (FIG. 14) and proliferation (FIG. 15) similar to those of ES cells. […]

[2] = test system: MEFs derived from the Fbx15^βgeo/βgeo mouse; assay: Effect of cytokine-producing STO feeder cells on iPS cell establishment (G418 selection); assay type: cell-based; details: 3 factors other than c-Myc transduced
Description: An effect of cytokine on iPS cell establishment was investigated. Expression vector (pMX retroviral vector) for basic fibroblast growth factor (bFGF) or stem cell factor (SCF) was transduced into feeder cells (STO cells) to establish cells permanently expressing the cytokines. […] As a result, the number of formed colonies increased 20 times or higher on the STO cells producing bFGF (FIG. 11) or SCF (data not shown), as compared with the culture on normal STO cells.

Row | Molecule | percentage of GFP-positive colonies [1] [%] | colony formation with the 3 factors other than c-Myc on cytokine-producing STO cells [2]
1 | COc1cccc(-c2cc(=O)c3ccccc3o2)c1N [PD98059] | 45 | 
2 | B1 |  | colony formation was observed
3 | B2 |  | colony formation was observed
